Molecular target: the molecule itself
Test: SEC; gel filtration on Superdex-75 PC 3.2/30, buffered solution (20 mM Na-phosphate, pH 7.8) without OCT; calibrated with protein standards; monomer and dimer

B1: recombinant wild type bovine odorant-binding protein (natural protein)
chain: AQEEEAEQNLSELSGPWRTVYIGSTNPEKIQENGPFRTYFRELVFDDEKGTVDFYFSVKRDGKWKNVHVKATKQDDGTYVADYEGQNVFKIVSLSRTHLVAHNINVDKHGQTTELTELFVKLNVEDEDLEKFWKLTEDKGIDKKNVVNFLENEDHPHPE
notes: also called bOBP; bOBPwt; source: E. coli BL21(DE3), purified (Ni-agarose, HisGraviTrap columns)
With B1 the “stoichiometry N” value was 2.
